Measured values taken from US20050108782A1, “Transgenic RS1-/- animal and uses thereof” (priority 2003, published 2005).

T1: hSGLT1 (Homo sapiens, UniProt P13866)
T1 construct: expressed in transfected cells; host or cells: Xenopus laevis oocytes (cRNA injection)
T1 sequence (P13866 1-664): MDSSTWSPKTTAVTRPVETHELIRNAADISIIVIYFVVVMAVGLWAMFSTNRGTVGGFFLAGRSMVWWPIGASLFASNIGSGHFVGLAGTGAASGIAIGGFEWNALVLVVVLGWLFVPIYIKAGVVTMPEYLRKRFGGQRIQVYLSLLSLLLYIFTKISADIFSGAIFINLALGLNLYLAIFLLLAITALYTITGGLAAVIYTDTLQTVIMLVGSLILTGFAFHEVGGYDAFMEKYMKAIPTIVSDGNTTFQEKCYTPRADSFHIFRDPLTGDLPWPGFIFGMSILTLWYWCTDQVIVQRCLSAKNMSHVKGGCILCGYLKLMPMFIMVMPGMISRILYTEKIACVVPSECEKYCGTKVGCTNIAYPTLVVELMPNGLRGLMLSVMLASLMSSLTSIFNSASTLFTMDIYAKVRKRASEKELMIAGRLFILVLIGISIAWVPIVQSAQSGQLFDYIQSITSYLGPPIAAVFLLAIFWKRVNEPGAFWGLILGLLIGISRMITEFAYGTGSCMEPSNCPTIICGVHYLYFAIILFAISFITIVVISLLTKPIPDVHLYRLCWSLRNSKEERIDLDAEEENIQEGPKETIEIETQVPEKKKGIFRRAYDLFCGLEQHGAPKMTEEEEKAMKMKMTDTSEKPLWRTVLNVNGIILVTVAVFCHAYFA


Tests used:
hSGLT1 = biological target: T1, hSGLT1; assay: [14C]AMG uptake expressed by hSGLT1 in Xenopus laevis oocytes; type: cell-based
Protocol: (§1) Stage V-VI oocytes were removed from Xenopus laevis clawed toads, selected and injected with cRNAs or water as described earlier (Veyhl et al., (1994) J. Biol. Chem. 268, 25041-25053). Per oocyte […] of water (control) or water containing plasma membrane transporter cRNAs alone or together with different amounts of hRS1-cRNA were injected. For translation the injected oocytes were incubated for 2-3 days (16° C.) in ORi buffer (5 mM HEPES-Tris, pH 7.4, 100 mM NaCl, 3 mM KCl, 2 mM CaCl and 1 mM MgCl2) containing 50 mg/l gentamycin (Veyhl et al., (1994) J. Biol. Chem. 268, 25041-25053).
(§2) [^14C]-AMG uptake of expressed plasma membrane transporters in oocytes was measured as described earlier Veyhl et al., (1994) J. Biol. Chem. 268, 25041-25053. Each uptake value represents the mean±SEM (n=8-10 oocytes). All experiments were performed with at least 3 batches of Xenopus oocytes.
Dynamin, a member of structurally related but functionally heterogeneous family of GTPases, that is required for clathrin-mediated and other types of endocytosis. After GTP binding dynamin assembles to a ring around the neck of coated pits and induces fission and release of vesicles upon hydrolysis of GTP (Eccleston et al., (2002) Eur. Biophys. J. 31, 275-282.). […] Oocytes were injected with 2.5 ng of hSGLT1-cRNA or with 2.5 ng pf hSGLT1-cRNA plus 10 ng of hRS1-cRNA. In some experiments either 10 ng of wild-type (DyWt) dynamin cRNA or 10 ng of dominant gegative dynamin mutant (DyMu) cRNA were coinjected. After three days of incubation for expression, phlorizin inhibitable uptake of 50 μM of [^14C]AMG was measured over a time period of 15 min as described earlier (Lambotte et al., (1996) DNA Cell Biol. 15, 769-777).
(§3) According to the methods described in Example 11 Xenopus oocytes were injected with 2.5 ng of SGLT1-cRNA or with 2.5 ng of SGLT1-cRNA plus 10 ng of hRS1 and incubated three days for expression (FIG. 11). Then the oocytes were injected with 50 nl Ori buffer (controls) or with 50 nl Ori buffer containing 20 μM of the protein kinase C activator sn-1,2-dioctanoyl glycerol (DOG). After 30 min incubation the phlorizin inhibitable uptake of 50 μM [^14C]AMG was measured as in FIG. 10.

hSGLT1 and hRS1 = assay: [14C]AMG uptake in Xenopus laevis oocytes coexpressing hSGLT1 and hRS1, with protein kinase C activation; type: cell-based, human; settings: coexpression of hSGLT1 and hRS1; 50 nl Ori buffer containing 20 μM DOG injected, 30 min incubation; 50 μM [14C]AMG
Protocol: as §1, §2
as §3, with “10. […]” for “10.”

Molecule	uptake of AMG expressed by hSGLT1, change by DOG (hSGLT1; hSGLT1 alone, 50 nl Ori buffer containing 20 μM DOG injected, 30 min incubation, 50 μM [14C]AMG)	expressed uptake of AMG, change by DOG (hSGLT1 and hRS1)	expression of AMG uptake by hSGLT1 after coexpression of hRS1 (hSGLT1; 2.5 ng SGLT1-cRNA plus 10 ng hRS1, three days, FIG. 11)	phlorizin inhibitable uptake of 50 μM [14C]AMG (hSGLT1; 2.5 ng hSGLT1-cRNA plus 10 ng hRS1-cRNA, three days expression, hSGLT1 alone 56±7) [pmol/oocyte×15 min]	Km value of AMG uptake expressed by hSGLT1 (hSGLT1; coexpression with hRS1, unpublished data not shown)	phlorizin inhibitable uptake of 50 μM [14C]AMG (hSGLT1; hSGLT1-cRNA plus hRS1-cRNA, 10 ng dominant negative dynamin mutant (DyMu) cRNA coinjected) [pmol/oocyte×15 min]	phlorizin inhibitable uptake of 50 μM [14C]AMG (hSGLT1; hSGLT1-cRNA plus hRS1-cRNA, 10 ng wild-type dynamin (DyWt) cRNA coinjected) [pmol/oocyte×15 min]	Vmax of AMG transport by hSGLT1 after coexpression with hRS1 (hSGLT1; tracer uptake studies and electrical measurements, unpublished data not shown)
CCCCCCCC(=O)OC[C@H](CO)OC(=O)CCCCCCC [DOG, sn-1,2-dioctanoyl glycerol, reference compound]	increased	decreased						
hRS1: human RS1 protein, expressed in Xenopus oocytes from injected hRS1-cRNA; regulator of SGLT1 (protein, UniProt Q92681 1-617, looked up) Regulatory solute carrier …: MSSLPTSDGFNHPARSSGQSPDVGNPMSLARSVSASVCPIKPSDSDRIEPKAVKALKASAEFQLNSEKKEHLSLQDLSDHASSADHAPTDQSPAMPMQNSSEEITVAGNLEKSAERSTQGLKFHLHTRQEASLSVTSTRMHEPQMFLGEKDWHPENQNLSQVSDPQQHEEPGNEQYEVAQQKASHDQEYLCNIGDLELPEERQQNQHKIVDLEATMKGNGLPQNVDPPSAKKSIPSSECSGCSNSETFMEIDTAQQSLVTLLNSTGRQNANVKNIGALDLTLDNPLMEVETSKCNPSSEILNDSISTQDLQPPETNVEIPGTNKEYGHYSSPSLCGSCQPSVESAEESCPSITAALKELHELLVVSSKPASENTSEEVICQSETIAEGQTSIKDLSERWTQNEHLTQNEQCPQVSFHQAISVSVETEKLTGTSSDTGREAVENVNFRSLGDGLSTDKEGVPKSRESINKNRSVTVTSAKTSNQLHCTLGVEISPKLLAGEEDALNQTSEQTKSLSSNFILVKDLGQGIQNSVTDRPETRENVCPDASRPLLEYEPPTSHPSSSPAILPPLIFPATDIDRILRAGFTLQEALGALHRVGGNADLALLVLLAKNIVVPT			reduced	10±1.5	does not change	37±3.5	2.5	decreased
